Data as given in PMC3898472, “Molecular Basis for DNA Double-Strand Break Annealing and Primer Extension by an NHEJ DNA Polymerase”.

Legend:
Mt-PolDom (crystal) = Mt-PolDom (crystal) (UniProt P9WNV3 1-300); experiment: crystal structure 2.4 A; 10 mM MnCl2; conditions: protein: recombinant
[1] = target: Mt-PolDom (LigD polymerase domain) (UniProt P9WNV3 1-300); experiment: DNase I footprinting; 5 ug protein; conditions: protein: recombinant; label: 32P 5'-end label

B1: annealed break T/D (dsDNA)
DNA 1: GCCGCAGATC
DNA 2: GCGGC
modifications: 5'-phosphate on D
Does B1 bind (Mt-PolDom (crystal))?
Result: binds

B2: 1-nt gapped FP-T/FP-P/FP-D, 5'-P (dsDNA)
DNA 1: GGCAGCTTGGATCTTGTCGAAAAACGTCAACATTCGCCTAGGCTTCGGCAATACTGAGGTCTTGTCGAAAAACGTCAACATTGCGTGGCC
DNA 2: GGCCACGCAATGTTGACGTTTTTCGACAAGACCTCAGTAT
DNA 3: GCCGAAGCCTAGGCGAATGTTGACGTTTTTCGACAAGATCCAAGCTGCC
modifications: 5'-phosphate on FP-D
Does B2 bind [1]?
Result: binds
